# Measured values as given in US20250312464A1 (CILOA, published 2025).
# B1: SBP-eGFP polypeptide (other)
# chain: not shown
# Molecular target: T1, Src-streptavidin-PP polypeptide
# T1 construct: also called Src-strepta-PP; Src-Strepta-PP
# Assay: co-expression in HEK293T cells; EV loading, Western blot
binder,measurement,value
B1,binding result,binds
